Key:
[1] = molecular target: humanized development candidate monoclonal antibody IgG4 (hIgG4); assay: Gyrolab, mAb as capture, hIgG4 8 ng/ml, against the blank
[2] = molecular target: humanized development candidate monoclonal antibody IgG4 (hIgG4); assay: Gyrolab, mAb as capture, hIgG4 1.6 ng/ml, against the blank
[3] = molecular target: humanized development candidate monoclonal antibody IgG4 (hIgG4); assay: Gyrolab, mAb as capture, hIgG4 0.32 ng/ml, against the blank
[4] = molecular target: humanized development candidate monoclonal antibody IgG4 (hIgG4); assay: direct ELISA, hIgG4 coated, B-cell culture medium
[5] = molecular target: humanized development candidate monoclonal antibody IgG4 (hIgG4); assay: Gyrolab, mAb as capture, hIgG4 40 ng/ml, against the blank
[6] = molecular target: humanized development candidate monoclonal antibody IgG4 (hIgG4); assay: Gyrolab, mAb as capture, hIgG4 40 ng/ml
[7] = molecular target: humanized therapeutic monoclonal antibody IgG1 (hIgG1); assay: ELISA, medium of transfected HEK293F; signal on hIgG1 over signal on cynoIgG
[8] = molecular target: humanized therapeutic monoclonal antibody IgG1 (hIgG1); assay: direct ELISA, hIgG1 coated, B-cell culture medium
[9] = molecular target: cynomolgus monkey IgG (cynoIgG); assay: direct ELISA, cynoIgG coated (hIgG1/CynoIgG screen), B-cell culture medium
[10] = molecular target: drug: a monoclonal antibody of human IgG4 isotype (PandA assay); assay: PandA assay, monkey matrix, mAb 1 ug/ml
[11] = molecular target: drug: a monoclonal antibody of human IgG4 isotype (PandA assay); assay: PandA assay, mAb 0.75 ug/ml in monkey plasma
[12] = molecular target: humanized development candidate monoclonal antibody IgG4 (hIgG4); assay: Gyrolab, mAb as capture, hIgG4 1.6 ng/ml
[13] = molecular target: humanized development candidate monoclonal antibody IgG4 (hIgG4); assay: Gyrolab, mAb as capture, hIgG4 1000 ng/ml, against the blank
[14] = molecular target: drug: a monoclonal antibody of human IgG4 isotype (PandA assay); assay: PandA assay, monkey matrix, mAb 5 ug/ml
[15] = molecular target: humanized development candidate monoclonal antibody IgG4 (hIgG4); assay: Gyrolab, mAb as capture, hIgG4 5000 ng/ml
[16] = molecular target: drug: a monoclonal antibody of human IgG4 isotype (PandA assay); assay: PandA assay, monkey matrix, mAb 0.5 ug/ml
[17] = molecular target: drug: a monoclonal antibody of human IgG4 isotype (PandA assay); assay: PandA assay, monkey matrix, mAb 0.75 ug/ml
[18] = molecular target: drug: a monoclonal antibody of human IgG4 isotype (PandA assay); assay: PandA assay, signal to noise against the negative control
[19] = molecular target: humanized development candidate monoclonal antibody IgG4 (hIgG4); assay: Gyrolab, mAb as capture, hIgG4 200 ng/ml
[20] = molecular target: humanized development candidate monoclonal antibody IgG4 (hIgG4); assay: Gyrolab, mAb as capture, hIgG4 1000 ng/ml
[21] = molecular target: drug: a monoclonal antibody of human IgG4 isotype (PandA assay); assay: PandA assay, mAb 0.5 ug/ml in monkey plasma
[22] = molecular target: internal research reagent human Fab (hFab); assay: SPR (Biacore T200), mAb captured by anti-rabbit mAb on CM5, antigen 80-0 nM, 1:1 fit
[23] = molecular target: humanized therapeutic monoclonal antibody IgG1 (hIgG1); assay: as above
[24] = molecular target: humanized development candidate monoclonal antibody IgG4 (hIgG4); assay: as above
[25] = molecular target: cynomolgus monkey IgG (cynoIgG); assay: direct ELISA, cynoIgG coated (hIgG4/CynoIgG screen), B-cell culture medium
[26] = molecular target: humanized development candidate monoclonal antibody IgG4 (hIgG4); assay: Gyrolab, mAb as capture, hIgG4 200 ng/ml, against the blank
[27] = molecular target: humanized development candidate monoclonal antibody IgG4 (hIgG4); assay: Gyrolab, mAb as capture, hIgG4 0.32 ng/ml
[28] = molecular target: humanized development candidate monoclonal antibody IgG4 (hIgG4); assay: Gyrolab, mAb as capture, hIgG4 8 ng/ml
[29] = molecular target: drug: a monoclonal antibody of human IgG4 isotype (PandA assay); assay: PandA assay, mAb 1 ug/ml in monkey plasma
[30] = molecular target: humanized development candidate monoclonal antibody IgG4 (hIgG4); assay: Gyrolab, mAb as capture, hIgG4 5000 ng/ml, against the blank
[31] = molecular target: humanized development candidate monoclonal antibody IgG4 (hIgG4); assay: ELISA, medium of transfected HEK293F; signal on hIgG4 over signal on cynoIgG
[32] = molecular target: drug: a monoclonal antibody of human IgG4 isotype (PandA assay); assay: PandA assay (PEG precipitation, acid dissociation, MSD plate, sulfo-TAG-drug), mAb 5 ug/ml in monkey plasma

B1: rabbit anti-human IgG monoclonal antibody clone 2C5 (antibody, V domains shown)
VH: QEQLVESGGDLVKPGASLTLTCTASGFSFSSGYYMCWVRQAPGKGLEWIACIYGGALTNTYYATWAKGRFTISKTSSTTVTLQMTSLTAADTATYFCARDLGAAGDAYNLWGPGTLVTVSS
VL: ASDMTQTPASVSAAVGGTVTIKCQASESIYSGLAWYQQKPGQPPKLLIFDASDLASGVPSRFKGSRSETEYTLTISDLECADAATYYCQCTDRNSITSYAFGGGTEVVVKG
S/B [1]: 3.2 | S/B [2]: 1.4 | S/B [3]: 1 | OD450 [4]: 1.29 OD450 | S/B [5]: 11.1 | Av. Resp. [6]: 23.4 | ELISA signal ratio hIgG1/CynoIgG [7]: 7.72 | OD450 [8]: 1.24 OD450 | OD450 [9]: 0.107 OD450 | S/N (monkey) [10]: 3.39 | ECL Signal [11]: 323 | Av. Resp. [12]: 3 | S/B [13]: 110 | S/N (monkey) [14]: 15.7 | Av. Resp. [15]: 317 | S/N (monkey) [16]: 1.93 | S/N (monkey) [17]: 2.51 | S/N [18]: 1.98 | Av. Resp. [19]: 87.7 | Av. Resp. [20]: 232 | ECL Signal [21]: 188 | Kd [22]: 0.55 nM | koff [22]: 0.00146 s⁻¹ | kon [22]: 2.65e+06 M⁻¹ s⁻¹ | Kd [23]: 0.277 nM | koff [23]: 3.8e-05 s⁻¹ | kon [23]: 137000 M⁻¹ s⁻¹ | Kd [24]: 0.1 nM | koff [24]: 1.36e-05 s⁻¹ | kon [24]: 135000 M⁻¹ s⁻¹ | OD450 [25]: 0.124 OD450 | S/B [26]: 41.7 | Av. Resp. [27]: 2.1 | Av. Resp. [28]: 6.6 | ECL Signal [29]: 426 | S/B [30]: 151 | ELISA signal ratio hIgG4/CynoIgG [31]: 7.91 | ECL Signal [32]: 2180

Source: patent US20250237662A1
